Reference: publication PMC6526471

Target: Patched (Ptc) receptor on C3H10T1/2 cells (mouse (endogenous in C3H10T1/2)) (UniProt Q61115)
Sequence of UniProt Q61115 (Q61115 whole entry): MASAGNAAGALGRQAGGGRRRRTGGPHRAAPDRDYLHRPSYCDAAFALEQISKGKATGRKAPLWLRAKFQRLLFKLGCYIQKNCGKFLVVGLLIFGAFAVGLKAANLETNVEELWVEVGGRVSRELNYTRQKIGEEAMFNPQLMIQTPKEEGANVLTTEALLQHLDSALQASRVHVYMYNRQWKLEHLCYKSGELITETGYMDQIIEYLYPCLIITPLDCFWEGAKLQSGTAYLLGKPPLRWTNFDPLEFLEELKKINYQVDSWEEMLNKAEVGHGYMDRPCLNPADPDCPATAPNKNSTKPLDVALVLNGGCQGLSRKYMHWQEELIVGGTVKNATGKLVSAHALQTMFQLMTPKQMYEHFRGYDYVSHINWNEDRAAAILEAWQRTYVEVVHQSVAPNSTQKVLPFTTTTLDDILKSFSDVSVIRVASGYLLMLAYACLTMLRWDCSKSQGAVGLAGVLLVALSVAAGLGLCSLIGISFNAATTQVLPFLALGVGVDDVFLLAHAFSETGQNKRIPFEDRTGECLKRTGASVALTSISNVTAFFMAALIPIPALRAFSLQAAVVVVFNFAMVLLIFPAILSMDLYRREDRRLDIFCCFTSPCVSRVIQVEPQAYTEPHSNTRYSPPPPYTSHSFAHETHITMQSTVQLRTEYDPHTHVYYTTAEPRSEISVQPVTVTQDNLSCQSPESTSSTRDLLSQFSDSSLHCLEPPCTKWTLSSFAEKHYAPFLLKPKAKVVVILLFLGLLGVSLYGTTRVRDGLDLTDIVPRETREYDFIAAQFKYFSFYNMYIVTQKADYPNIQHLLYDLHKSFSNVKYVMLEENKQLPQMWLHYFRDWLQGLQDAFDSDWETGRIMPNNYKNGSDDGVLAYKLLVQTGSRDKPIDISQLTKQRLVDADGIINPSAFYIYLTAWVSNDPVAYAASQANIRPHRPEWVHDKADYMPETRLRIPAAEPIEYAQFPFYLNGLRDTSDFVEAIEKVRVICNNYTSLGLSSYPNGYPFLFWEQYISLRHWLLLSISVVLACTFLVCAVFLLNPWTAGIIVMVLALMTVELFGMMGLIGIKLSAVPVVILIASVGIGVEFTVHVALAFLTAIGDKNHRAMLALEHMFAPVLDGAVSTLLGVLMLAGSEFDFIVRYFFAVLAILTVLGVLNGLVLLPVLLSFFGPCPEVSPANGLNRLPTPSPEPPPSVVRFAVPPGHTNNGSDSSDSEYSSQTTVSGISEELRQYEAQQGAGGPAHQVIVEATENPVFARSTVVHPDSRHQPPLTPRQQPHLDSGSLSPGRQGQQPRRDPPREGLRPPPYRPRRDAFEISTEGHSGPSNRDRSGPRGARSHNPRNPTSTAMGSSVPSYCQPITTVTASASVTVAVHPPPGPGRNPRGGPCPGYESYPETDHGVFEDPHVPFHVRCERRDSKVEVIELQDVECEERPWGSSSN

“Sonic hedgehog (Shh), soluble form released from Shh-expressing Panc1 cells (ligand)” showed a Shh-induced C3H10T1/2 differentiation with 5 ug/mL HSI (0.7 sulfates/disaccharide), relative to no HS/heparin (100%) of 70%, a Shh-induced C3H10T1/2 differentiation with 5 ug/mL HSII (1.2 sulfates/disaccharide), relative to no HS/heparin (100%) of 58% and a Shh-induced C3H10T1/2 differentiation with 5 ug/mL HSIII (1.4 sulfates/disaccharide), relative to no HS/heparin (100%) of 38%. It also gave a Shh-induced C3H10T1/2 differentiation with 5 ug/mL dp30 heparin, relative to no HS/heparin (100%) of 26% and a Shh-induced C3H10T1/2 differentiation with 5 ug/mL heparin, relative to no HS/heparin (100%) of 27%.
